Test results taken from US9273140B2, “Antibody for detecting DNA damage in cells utilizing cell membrane surface antigen Ly6D” (FUJITA HEALTH UNIVERSITY, priority 2012, dated 2016).

Key:
[1] = tested on: LY6D expression on the surfaces of MCF10A cells; experiment: LY6D expression in MCF10A cells incubated with DNA-damaging stressors, by FCM; assay type: cell-based; details: contact with DNA-damaging stressor (MMC 300 nM; hydroxyurea 2 mM), FIG. 4
Procedure: MCF10A cells were incubated with DNA-damaging stressor (MMC: 300 nM), carboplatin, hydroxyurea (2 mM), or aphidicolin and relative LY6D expression was determined by FCM.
After the growth to confluence, the cells were irradiated at 10Gy (3 mA/50 kV) in cabinet-type X-ray apparatus (SOFRON, soft X-ray inversion system). At a desired timing after irradiation, the cells were harvested.
The FCM analysis was carried out according to the method reported previously (Kurosawa et al., 2009, Immunol. Meth. 351: 1-12). Reactivity of the obtained anti-Ly6D antibodies was examined using the Ly6D expression cell line, namely A431™ (cell line human squamous carcinoma) (CML ATCC CCL-243). The A431 cells were recovered by centrifugation. The recovered cells were washed once with PBS and then suspended in FACS Buffer (PBS containing 1% BSA, 2 mM EDTA, and 0.1% NaN3) to result in 1×10^6 cells/mL. The cell suspension (100 μL) was dispensed on a 96-well V-bottomed plate (Costar 3897). The Ly6D antibodies were adjusted to a concentration of 0.02 to 2 μg/mL using FACS Buffer. The prepared antibody solution (100 μL) was added to the cells, followed by incubation at 4° C. for 1 hour. The cells were washed twice with FACS buffer. Then, 100 μL of ALEXAFLUOR-anti-human IgG™ (fluorescent antibody) (Invitrogen) diluted 750-fold with FACS Buffer was added to the cells, followed by another incubation at 4° C. for 1 hour. The cells were washed with FACS Buffer twice by centrifugation and set in HTS of FACS Calibur (BD) for measurement of FL1 fluorescence intensity of each well.
It is well known that X-ray irradiation causes damage to DNA, which results in DNA double-strand breaks. A variety of chemical reagents also cause DNA damage stress in cells. Therefore, the influence of camptothecin (CPT) on the LY6D expression in MCF10A cells was examined. […] Therefore, the induction of LY6D expression on the surfaces of MCF10A cells was confirmed to be a common phenomenon due to DNA damage stress.

[2] = tested on: LY6D expression; details: Rubinfeld et al., 2006; cited from earlier work
[3] = target: T1, LY6D (Homo sapiens, UniProt Q14210); experiment: Immunoprecipitation, western blot and mass spectrometry to identify the antigen recognized by the antibody; assay type: binding; details: for 14 kDa band in western blot of immunoprecipitate: FIG. 2A
T1 construct: LY6D was identified by the precipitate derived from the X-ray-irradiated cells; endogenous in cells; host or cells: MCF10A cells (X-ray-irradiated and non-irradiated); FaDu cells
T1 sequence (Q14210 21-98 limits assumed): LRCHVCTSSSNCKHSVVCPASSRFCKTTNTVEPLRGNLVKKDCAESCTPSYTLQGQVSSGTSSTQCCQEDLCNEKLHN
Procedure: After biotinylation, the membrane proteins of the X-ray-irradiated MCF10A cells (right) and non-irradiated MCF10A cells (left) were solubilized and subjected to immunoprecipitation using the E33-139 monoclonal antibody, the product was separated by SDS-PAGE, and western blot was performed with HRP-conjugated streptavidin (A: western blot). MCF10A cells treated as described above were digested with PI-PLC, the resultant was centrifuged, and cell pellets (P) and the supernatant (S) subjected to PI-PLC treatment were separately immunoprecipitated (B: western blot). FaDu cells were treated with LY6D siRNA or control siRNA and analyzed by FCM using the E33-139 monoclonal antibody (black line: control siRNA and the E33-139 monoclonal antibody; dashed line: LY6D siRNA and the E33-139 monoclonal antibody; gray: control siRNA without the E33-139 monoclonal antibody (C: FCM). The experiment shown in FIG. 2B was carried out using FaDu cells (D: western blot). Solubilized FaDu cells were subjected to IP using the E33-139 monoclonal antibody and the product was separated by SDS-PAGE (left: western blot using anti-hLY6D Ab (polyclonal Ab, commercial product); right: silver stained gel) (E: western blot).
Conditions of immunoprecipitation were set as previously reported (Kurosawa et al., 2009, J. Immunol. Meth. 351: 1-12). […] The concentrate was analyzed by LC/MS.
Immunoprecipitation (IP) was performed to identify an antigen recognized by the E33-139 antibody. […] They were determined to be detected in precipitates in a nonspecific manner because they are abundant in the cytoplasm. […] Therefore, LY6D was determined to be a promising candidate as an antigen recognized by E33-139.
It has been reported that LY6D is abundantly expressed in a large amount in squamous cell carcinoma of head and neck (Quak et al., 1990, Am. J. Pathol. 136: 191-197). […] Before digestion with PI-PLC, a 14-kDa band was detected by the western blot method. […] The resulting blots were detected using a commercially available anti-human LY6D antibody. […]

[4] = tested on: MCF10A cells; experiment: Selection of monoclonal antibodies by cell ELISA, FCM and confocal laser microscopy on X-ray-irradiated and non-irradiated cells; assay type: binding
Procedure: X-ray-irradiated MCF10A cells (black bars) and non-irradiated MCF10A cells (gray bars) were subjected to ELISA using six monoclonal antibodies (A: cell ELISA). X-ray-irradiated cells (pink) and non-irradiated cells (green) were incubated with six monoclonal antibodies and subjected to FCM, and non-irradiated cells incubated with PBS were used as a negative control (purple) (B: FCM). X-ray-irradiated cells and non-irradiated cells were stained with the E33-139 monoclonal antibody (green) and DAPI (blue), respectively, and examined using a confocal laser microscope (C: immunofluorescence confocal laser microscopy).
X-ray-irradiated cells and non-irradiated cells were prepared, and antibodies specific to the irradiated cells were screened for by cell ELISA. That is, reactivity of antibody to both cells was examined by ELISA. A blocking solution (5% skim milk/0.05% NaN3/PBS) was added at 200 μL/well to both cells, followed by blocking at 37° C. for 2 hours. The blocking solution was removed and the cells were washed with PBS. The supernatant of the above antibody expression culture was added at 100 μL/well, followed by reaction at 37° C. for 1 hour. The resultant was washed five times with PBS. Rabbit anti-cp3 (1 μg/mL) diluted with PBS/0.05% Tween 20 was added at 100 μL/well, followed by reaction at 37° C. for 1 hour. The resultant was washed five times with PBS. Anti-Rabbit IgG (H+L)-HRP diluted 2000-fold with PBS/0.05% Tween 20 was further added at 100 μL/well, followed by reaction at 37° C. for 1 hour. The resultant was washed five times with PBS. […] Then, the absorbance at 492 nm was measured by SPECTRAmax340PC (Molecular Devices). Antibodies showing obvious positive reactivity specific to only the irradiated cells were selected and DNA sequences of the phages were analyzed. […]
The FCM analysis was carried out according to the method reported previously (Kurosawa et al., 2009, Immunol. Meth. 351: 1-12). […] The cells were washed with FACS Buffer twice by centrifugation and set in HTS of FACS Calibur (BD) for measurement of FL1 fluorescence intensity of each well. […]

Molecule: C[C@@]1(CO)[C@H](O)CC[C@@]2(C)[C@H]1CC[C@H]1C[C@@H]3C[C@@]12CC[C@]3(O)CO [aphidicolin]
- LY6D expression on the surfaces of MCF10A cells [1]: induced

Molecule: NC(=O)NO [hydroxyurea]
- LY6D expression on the surfaces of MCF10A cells [1]: induced

Molecule: CCc1c2c(nc3ccc(OC(=O)N4CCC(N5CCCCC5)CC4)cc13)-c1cc3c(c(=O)n1C2)COC(=O)[C@]3(O)CC [irinotecan]
- LY6D expression after chemotherapy treatment [2]: significantly enhanced

Molecule: N.N.O=C([O-])C1(C(=O)[O-])CCC1.[Pt+2] [carboplatin]
- LY6D expression on the surfaces of MCF10A cells [1]: induced

Molecule: CO[C@@]12[C@H](COC(N)=O)C3=C(C(=O)C(C)=C(N)C3=O)N1C[C@@H]1N[C@@H]12 [mitomycin C]
- LY6D expression on the surfaces of MCF10A cells [1]: induced

B1: E33-139: human phage antibody (scFv) against LY6D; sequence SEQ ID NOS: 1 and 2, CDRs SEQ ID NOS: 3 to 8 (protein)
scFv: MAEVQLVESGGGLVQPGRSLRLSCAASGFTFDDYAMHWVRQAPGKGLEWVSGISWNSGSIGYADSVKGRFTISRDNAKNSLYLQMNSLRAEDTALYYCAKTGILDAFDIWGQGTTVTVSRGGGGSGGGGSGGGGSMAQSVLTQPPSVSGAPRQTVTISCSGSSSNIGQNSVTWYQRLPGEAPKLLIYYDDLLHSGVSDRFSGSKSGTSASLAISGLQSEDEAEYYCASWDDSLKGPVFGGGTKLTVLGQPKAAPSVTLFPPSSEELQANKATLVCLISDFYPGAVTVAWKADSSPVKAGVETTTPSKQSNNKYAASSYLSLTPEQWKSHKSYSCQVTHEGSTVEKTVAPTECSAR
modifications: human
- antigen recognized by the antibody ([3]; IP, MS, PI-PLC, siRNA and anti-human LY6D western blot): antigen protein 139 is LY6D
- 14 kDa band in western blot of immunoprecipitate ([3]; samples from X-ray-irradiated MCF10A cells): a prominent band was observed
- 14 kDa band in western blot of immunoprecipitate ([3]; samples from non-irradiated MCF10A cells): slightly observed
- reactivity to MCF10A cells after X-ray irradiation ([4]; X-ray-irradiated MCF10A cells (10Gy)): increased reactivity
- binding to molecules on the surfaces of X-ray-irradiated cells, confocal laser microscope analysis ([4]; X-ray-irradiated MCF10A cells, FIG. 1C): consistently and strongly binds
- reactivity to MCF10A cells before X-ray irradiation ([4]; non-irradiated MCF10A cells): no reactivity
